Source: patent US6787341B2, “Pharmacological targeting of bacterial DNA ligase for treatment and prevention of bacterial infections” (priority 2001, dated 2004)

Assays:
E. coli LigA [1] = type: biochemical; details: specific activity by protein titration under steady-state conditions, normalized to wild-type ligase
Description: (§1) FIG. 12A: Aliquots (5 μg) of wild-type (WT) E. coli ligase, N-terminal deletion mutants NΔ38 and NΔ78, and the full-length ligase proteins containing the indicated alanine mutations in domain Ia were analyzed by SDS-PAGE. A Coomassie blue-stained gel is shown. FIG. 12B: Ligase adenylation reaction mixtures (20 μl) containing 50 mM Tris-HCl (pH 7.5), 5 mM DTT, 5 mM MgCl2, 1 μM [α-^32P]NAD^+ and 8 pmol of WT ligase, NΔ38, NΔ78, or the indicated alanine mutants were incubated for 5 min at 37° C. The reaction products were resolved by SDS-PAGE and visualized by autoradiography. FIG. 12C: Nick joining reaction mixtures (20 μl) containing 50 mM Tris-HCl (pH 7.5), 10 mM (NH4)2SO4, 5 mM DTT, 5 mM MgCl2, 20 μM NAD^+, 1 pmol of ^32P-labeled nicked DNA, and increasing amounts of WT ligase or the indicated alanine mutants were incubated for 10 min at 22° C. The extents of ligation are plotted as a function of input protein.
To further probe the role of domain Ia in NAD^+ recognition and nucleotidyl transfer, single alanine substitutions were introduced at six positions in the Ia domain of E. coli LigA. The six mutated Eco ligase residues—Glu10, Tyr22, His23, Asp32, Tyr35, and Asp36—correspond to the six residues that were subjected to alanine scanning mutagenesis in AmEPV ligase (FIG. 11). […] The conserved positions are denoted by shaded boxes in FIG. 11. The Eco ligase mutants E10A, Y22A, H23A, D32A, Y35A, and D36A were produced in E. coli and purified by Ni-agarose chromatography in parallel with wild-type ligase (FIG. 12A).
To evaluate the roles of charge, hydrogen bonding potential, and steric constraints in the functions of the domain Ia residues implicated in the step 1 reaction with NAD^+, the effects of conservative substitutions were tested. Tyr22 and Tyr35 were replaced by Phe and Ser, His23 was changed to Tyr, and Asp32 and Asp36 were mutated to Glu and Asn. The recombinant mutant ligases were purified from soluble bacterial extracts by Ni-agarose chromatography (FIG. 15A). The specific activity of each mutant was determined under steady-state conditions by protein titration and normalized to the specific activity of wild-type ligase.

E. coli LigA [2] = type: biochemical; details: for rate of ligase adenylation (kinetic pattern): 1 μM [32P-AMP]NAD+, 15-120 s; for ligase adenylation (ligase-AMP formation) with NAD+: qualitative
Description: as §1
FIG. 15A: Aliquots (5 μg) of wild-type (WT) E. coli ligase and proteins containing the indicated mutations in domain Ia were analyzed by SDS-PAGE. The Coomassie blue-stained gel is shown. The positions and sizes (in kDa) of marker proteins are indicated on the left. FIG. 15B: Ligase adenylation reaction mixtures (20 μl) containing 50 mM Tris-HCl (pH 7.5), 5 mM DTT, 5 mM MgCl2, 1 μM [α-^32P]NAD^+ and 8 pmol of WT ligase or the indicated mutants were incubated for 5 min at 37° C. The reaction products were resolved by SDS-PAGE and visualized by autoradiography.
Reaction mixtures containing (per 20 μl) 50 mM Tris-HCl (pH 7.5), 5 mM DTT, 5 mM MgCl2, 1 μM [^32P-AMP]NAD^+ and 8 pmol of ligase were incubated at 22° C. Aliquots (20 μl) were withdrawn at 15, 30, 60 and 120 s and then quenched immediately with SDS. The products were analyzed by SDS-PAGE. Formation of the ligase-[^32P]AMP adduct is plotted as a function of time.
The first step in DNA ligation involves formation of a covalent enzyme-adenylate intermediate.

Molecule	Nick Joining Activity (% of WT) (E. coli LigA [1])	rate of ligase adenylation (kinetic pattern) (E. coli LigA [2])	ligase adenylation (ligase-AMP formation) with NAD+ (E. coli LigA [2])
Y22F: E. coli LigA with Tyr22 replaced by Phe (protein, UniProt P15042 1-671, looked up, variant Y22F) DNA ligase: MESIEQQLTELRTTLRHHEYLFHVMDAPEIPDAEYDRLMRELRELETKHPELITPDSPTQRVGAAPLAAFSQIRHEVPMLSLDNVFDEESFLAFNKRVQDRLKNNEKVTWCCELKLDGLAVSILYENGVLVSAATRGDGTTGEDITSNVRTIRAIPLKLHGENIPARLEVRGEVFLPQAGFEKINEDARRTGGKVFANPRNAAAGSLRQLDPRITAKRPLTFFCYGVGVLEGGELPDTHLGRLLQFKKWGLPVSDRVTLCESAEEVLAFYHKVEEDRPTLGFDIDGVVIKVNSLAQQEQLGFVARAPRWAVAFKFPAQEQMTFVRDVEFQVGRTGAITPVARLEPVHVAGVLVSNATLHNADEIERLGLRIGDKVVIRRAGDVIPQVVNVVLSERPEDTREVVFPTHCPVCGSDVERVEGEAVARCTGGLICGAQRKESLKHFVSRRAMDVDGMGDKIIDQLVEKEYVHTPADLFKLTAGKLTGLERMGPKSAQNVVNALEKAKETTFARFLYALGIREVGEATAAGLAAYFGTLEALEAASIEELQKVPDVGIVVASHVHNFFAEESNRNVISELLAEGVHWPAPIVINAEEIDSPFAGKTVVLTGSLSQMSRDDAKARLVELGAKVAGSVSKKTDLVIAGEAAGSKLAKAQELGIEVIDEAEMLRLLGS	9 % of WT	reacted slowly	weakly active
Y22S: E. coli LigA with Tyr22 replaced by Ser (protein, UniProt P15042 1-671, looked up, variant Y22S) DNA ligase: MESIEQQLTELRTTLRHHEYLSHVMDAPEIPDAEYDRLMRELRELETKHPELITPDSPTQRVGAAPLAAFSQIRHEVPMLSLDNVFDEESFLAFNKRVQDRLKNNEKVTWCCELKLDGLAVSILYENGVLVSAATRGDGTTGEDITSNVRTIRAIPLKLHGENIPARLEVRGEVFLPQAGFEKINEDARRTGGKVFANPRNAAAGSLRQLDPRITAKRPLTFFCYGVGVLEGGELPDTHLGRLLQFKKWGLPVSDRVTLCESAEEVLAFYHKVEEDRPTLGFDIDGVVIKVNSLAQQEQLGFVARAPRWAVAFKFPAQEQMTFVRDVEFQVGRTGAITPVARLEPVHVAGVLVSNATLHNADEIERLGLRIGDKVVIRRAGDVIPQVVNVVLSERPEDTREVVFPTHCPVCGSDVERVEGEAVARCTGGLICGAQRKESLKHFVSRRAMDVDGMGDKIIDQLVEKEYVHTPADLFKLTAGKLTGLERMGPKSAQNVVNALEKAKETTFARFLYALGIREVGEATAAGLAAYFGTLEALEAASIEELQKVPDVGIVVASHVHNFFAEESNRNVISELLAEGVHWPAPIVINAEEIDSPFAGKTVVLTGSLSQMSRDDAKARLVELGAKVAGSVSKKTDLVIAGEAAGSKLAKAQELGIEVIDEAEMLRLLGS	0.2 % of WT	–	virtually inert
Y35F: E. coli LigA with Tyr35 replaced by Phe (protein, UniProt P15042 1-671, looked up, variant Y35F) DNA ligase: MESIEQQLTELRTTLRHHEYLYHVMDAPEIPDAEFDRLMRELRELETKHPELITPDSPTQRVGAAPLAAFSQIRHEVPMLSLDNVFDEESFLAFNKRVQDRLKNNEKVTWCCELKLDGLAVSILYENGVLVSAATRGDGTTGEDITSNVRTIRAIPLKLHGENIPARLEVRGEVFLPQAGFEKINEDARRTGGKVFANPRNAAAGSLRQLDPRITAKRPLTFFCYGVGVLEGGELPDTHLGRLLQFKKWGLPVSDRVTLCESAEEVLAFYHKVEEDRPTLGFDIDGVVIKVNSLAQQEQLGFVARAPRWAVAFKFPAQEQMTFVRDVEFQVGRTGAITPVARLEPVHVAGVLVSNATLHNADEIERLGLRIGDKVVIRRAGDVIPQVVNVVLSERPEDTREVVFPTHCPVCGSDVERVEGEAVARCTGGLICGAQRKESLKHFVSRRAMDVDGMGDKIIDQLVEKEYVHTPADLFKLTAGKLTGLERMGPKSAQNVVNALEKAKETTFARFLYALGIREVGEATAAGLAAYFGTLEALEAASIEELQKVPDVGIVVASHVHNFFAEESNRNVISELLAEGVHWPAPIVINAEEIDSPFAGKTVVLTGSLSQMSRDDAKARLVELGAKVAGSVSKKTDLVIAGEAAGSKLAKAQELGIEVIDEAEMLRLLGS	23 % of WT	faster than Y35A	restored adenylation activity
Y35S: E. coli LigA with Tyr35 replaced by Ser (protein, UniProt P15042 1-671, looked up, variant Y35S) DNA ligase: MESIEQQLTELRTTLRHHEYLYHVMDAPEIPDAESDRLMRELRELETKHPELITPDSPTQRVGAAPLAAFSQIRHEVPMLSLDNVFDEESFLAFNKRVQDRLKNNEKVTWCCELKLDGLAVSILYENGVLVSAATRGDGTTGEDITSNVRTIRAIPLKLHGENIPARLEVRGEVFLPQAGFEKINEDARRTGGKVFANPRNAAAGSLRQLDPRITAKRPLTFFCYGVGVLEGGELPDTHLGRLLQFKKWGLPVSDRVTLCESAEEVLAFYHKVEEDRPTLGFDIDGVVIKVNSLAQQEQLGFVARAPRWAVAFKFPAQEQMTFVRDVEFQVGRTGAITPVARLEPVHVAGVLVSNATLHNADEIERLGLRIGDKVVIRRAGDVIPQVVNVVLSERPEDTREVVFPTHCPVCGSDVERVEGEAVARCTGGLICGAQRKESLKHFVSRRAMDVDGMGDKIIDQLVEKEYVHTPADLFKLTAGKLTGLERMGPKSAQNVVNALEKAKETTFARFLYALGIREVGEATAAGLAAYFGTLEALEAASIEELQKVPDVGIVVASHVHNFFAEESNRNVISELLAEGVHWPAPIVINAEEIDSPFAGKTVVLTGSLSQMSRDDAKARLVELGAKVAGSVSKKTDLVIAGEAAGSKLAKAQELGIEVIDEAEMLRLLGS	<0.1 % of WT	–	apparently unreactive
H23Y: E. coli LigA with His23 changed to Tyr (protein, UniProt P15042 1-671, looked up, variant H23Y) DNA ligase: MESIEQQLTELRTTLRHHEYLYYVMDAPEIPDAEYDRLMRELRELETKHPELITPDSPTQRVGAAPLAAFSQIRHEVPMLSLDNVFDEESFLAFNKRVQDRLKNNEKVTWCCELKLDGLAVSILYENGVLVSAATRGDGTTGEDITSNVRTIRAIPLKLHGENIPARLEVRGEVFLPQAGFEKINEDARRTGGKVFANPRNAAAGSLRQLDPRITAKRPLTFFCYGVGVLEGGELPDTHLGRLLQFKKWGLPVSDRVTLCESAEEVLAFYHKVEEDRPTLGFDIDGVVIKVNSLAQQEQLGFVARAPRWAVAFKFPAQEQMTFVRDVEFQVGRTGAITPVARLEPVHVAGVLVSNATLHNADEIERLGLRIGDKVVIRRAGDVIPQVVNVVLSERPEDTREVVFPTHCPVCGSDVERVEGEAVARCTGGLICGAQRKESLKHFVSRRAMDVDGMGDKIIDQLVEKEYVHTPADLFKLTAGKLTGLERMGPKSAQNVVNALEKAKETTFARFLYALGIREVGEATAAGLAAYFGTLEALEAASIEELQKVPDVGIVVASHVHNFFAEESNRNVISELLAEGVHWPAPIVINAEEIDSPFAGKTVVLTGSLSQMSRDDAKARLVELGAKVAGSVSKKTDLVIAGEAAGSKLAKAQELGIEVIDEAEMLRLLGS	88 % of WT	–	restored the yield of ligase-AMP adduct to the wild-type level
